The target in the assay is Pfs25 (Plasmodium falciparum) (UniProt P13829). Description: cell-based or functional assay.
UniProt P13829, sequence (P13829 17-196): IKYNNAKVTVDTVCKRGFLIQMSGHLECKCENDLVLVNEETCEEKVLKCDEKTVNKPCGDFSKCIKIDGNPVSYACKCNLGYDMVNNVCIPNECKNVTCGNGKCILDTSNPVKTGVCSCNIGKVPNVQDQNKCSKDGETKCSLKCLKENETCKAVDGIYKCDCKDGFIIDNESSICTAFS

As for anti-Pfs25 mAb 4B7 (antibody), the % inhibition estimate (standard membrane feeding assay, SMFA) was 93.8%.
